Numbering of substitutions follows the chain as printed.

These results are taken from PMC3325275, “Molecular Mechanism Underlying the Interaction of Typical Sac10b Family Proteins with DNA” (PLoS ONE, 2012).

For data set [1], the system named is Mth10b T77R (Methanobacterium thermoautotrophicum ΔH). In words: SPR. The following applies: no NaCl; apparent KD; SPR (BIAcore 3000, SA chip): 20 mM Tris, 1 mM EDTA, 0.005% Tween20, pH 7.5, with 0, 0.1 or 0.3 M NaCl, 25°C.
The test system of data set [2] is Mth10b N11KI39RT77R (Methanobacterium thermoautotrophicum ΔH). The data set can be described thus: SPR. The note with it: SPR (BIAcore 3000, SA chip): 20 mM Tris, 1 mM EDTA, 0.005% Tween20, pH 7.5, with 0, 0.1 or 0.3 M NaCl, 25°C. In general terms: SPR reads the build-up and loss of mass on a sensor chip optically.
Data set [3] concerns Mth10b I39R (Methanobacterium thermoautotrophicum ΔH). The data set can be described thus: SPR. The note with it: SPR (BIAcore 3000, SA chip): 20 mM Tris, 1 mM EDTA, 0.005% Tween20, pH 7.5, with 0, 0.1 or 0.3 M NaCl, 25°C.
Data set [4] relates to Mth10b N11K (Methanobacterium thermoautotrophicum ΔH). In words: SPR. The note with it: SPR (BIAcore 3000, SA chip): 20 mM Tris, 1 mM EDTA, 0.005% Tween20, pH 7.5, with 0, 0.1 or 0.3 M NaCl, 25°C.
Data set [5] addresses T1, Mth10b wild type (Methanobacterium thermoautotrophicum ΔH) (UniProt O27527).
T1 sequence: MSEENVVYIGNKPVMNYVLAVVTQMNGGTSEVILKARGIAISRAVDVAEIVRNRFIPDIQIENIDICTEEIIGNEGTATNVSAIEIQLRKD
In words: SPR. The note with it: SPR (BIAcore 3000, SA chip): 20 mM Tris, 1 mM EDTA, 0.005% Tween20, pH 7.5, with 0, 0.1 or 0.3 M NaCl, 25°C.

Data set [6] addresses T2, Mth10b N11KI39RT77R N11K;I39R;T77R (Methanobacterium thermoautotrophicum ΔH) (UniProt O27527).
T2 sequence: T1 sequence with N11K, I39R, T77R
In words: SPR. The note with it: SPR (BIAcore 3000, SA chip): 20 mM Tris, 1 mM EDTA, 0.005% Tween20, pH 7.5, with 0, 0.1 or 0.3 M NaCl, 25°C.

The target in data set [7] is T3, Mth10b T77R T77R (Methanobacterium thermoautotrophicum ΔH) (UniProt O27527).
T3 sequence: T1 sequence with T77R
The data set can be described thus: SPR. The note with it: SPR (BIAcore 3000, SA chip): 20 mM Tris, 1 mM EDTA, 0.005% Tween20, pH 7.5, with 0, 0.1 or 0.3 M NaCl, 25°C.

Data set [8] deals with the molecule itself. The data set can be described thus: crystal structure; purified Mth10b at ~10 mg/ml in 10 mM HEPES pH 7.2, 150 mM NaCl; hanging drop at 4°C over 0.1 M NaCl, 1.6 M (NH4)2SO4, 0.1 M HEPES pH 7.5; 2.2 Å; dimer formed about a crystallographic two-fold axis.
Setting [9] is: 0.1 M NaCl, slight cooperativity.

Consider 110 bp mth10b fragment, for which the Kd in data set [1] turned out to be 16 µM; in data set [2] (setting [9]), 0.7 µM; in data set [3] (setting [9]), 6.5 µM; in data set [3] (no NaCl, apparent KD), 0.26 µM; in data set [4] (0.1 M NaCl, marked cooperativity) it was 30 µM; in data set [4] (no NaCl, apparent KD), 2.1 µM. Further, the fold decrease in affinity (fold lower affinity than in 0.1 M NaCl) in data set [2] (0.3 M NaCl, high cooperativity) turned out to be 70.

For the molecule “GTGATGTCAGAGGAGAATGTAGTATACATCGGAAACAAGCCTGTAATGAACTATGTTCTGGCCGTGGTTACTCAGATGAACGGTGGGACCAGTGAAGTGATCCTTAAAGC (double strand) [110 bp mth10b fragment]”, the binding result in data set [5] was “no binding”. Moreover, the Kd in data set [6] stood at 0.7 µM; in data set [7] it was 16 µM.

B1: Mth10b from Methanobacterium thermoautotrophicum ΔH (natural protein, UniProt O27527 1-91, looked up)
chain: T1 sequence
notes: Mth10b, atypical Sac10b (Alba) family member of Methanobacterium thermoautotrophicum ΔH, gene mth10b (MTH1483); 91 residues in total, C-terminal residue Asp91; expressed from pET11a-mth10b; the structure model covers 86 of the 91 residues; also called wild type Mth10b; source: E. coli BL21 (DE3), purified
On to B1, for which the stoichiometry N (as a rule, the number of molecules, sites or subunits per partner or assembly) in data set [8] is 2.
